# Results taken from the supplement of paper PMC9170038.
# Tested on: MS2 coat protein
# Experiment: apparent KD of MS2 coat protein; designed switch direction (-1 OFF switch, 1 ON switch): -1; higher = weaker reporter binding
# How it was run: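 Each step of the titration lasted 0.8–1.5 h at the lowest concentration and 10–20 min at the highest. The protein, SNAP-549-labelled MS2 coat protein, went from 0.7 or 1.5 nM doubling to 3 µM over RNA switches transcribed on Illumina chips by stalled E. coli RNA polymerase. Normalised cluster fluorescence was curve-fitted, and the per-design median over clusters is given as apparent KD.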
# [1] = input ligand: microRNA oligo, concentration not stated
# [2] = Eterna round: R95, input ligand: microRNA oligo, concentration not stated
# [3] = Eterna round: R95, input ligand: FMN 200 uM
# [4] = Eterna round: R95, input ligand: none
Sequence,apparent KD of MS2 coat protein (input ligand: FMN 200 uM) [nM],apparent KD of MS2 coat protein [1] [nM],apparent KD of MS2 coat protein (input ligand: none) [nM],apparent KD of MS2 coat protein [2] [nM],apparent KD of MS2 coat protein [3] [nM],apparent KD of MS2 coat protein [4] [nM]
"GGAUUCCAGUGAGGAUAUCCAAAUAAAAGCCAUGGAGAAGGCACAUGAGGAUCACCCAUGUAGGGCAAUAGCAGCGACCGCUGC [Usxeer] (Eterna round: R96, puzzle: Exclusion NG 1)",60.8,20.7,35.1,–,–,–
CGUACUGAAGUGAGGAUAUUGUCUCGGAUACGAAACAAGAAGGCACAUGAGGAUCACCCAUGUAAACAGUACGA [Malc #30 mod 10] (puzzle: Brourd's mod of Exclusion 4),–,–,–,15.6,–,–
"GGCGCACAUGAGGAUCACCCAUGUGAGGAUAUGUGGCGAUCGUCGAUAGACGAUAGCCACAGAAGGCACAUGCC [Mat - Exclusion 1 - Eli Mod - D20] (Eterna round: R97, puzzle: Exclusion 1)",74,–,33.3,–,–,–
"CUUUUUGUCGAGGAUAUGCACCAGCUCACUGACGCAGAAGGCGACACAUGAGGAUCACCCAUGUCAGUUCGCGU [salish99_ex6_r004_433] (Eterna round: R97, puzzle: Exclusion 6)",35.3,–,20,–,–,–
"UAUAUAUAGUAAGGAUAUGUAUUUAUUUUAGAAACAGAAGGUACUGACAUGAGGAUCACCCAUGUUUUAGUGUGGGCAUGUAGA [JMF's solution 23] (Eterna round: R96, puzzle: Exclusion NG 1)",–,62,–,–,–,–
"AGGUAGUCAGGAUAUUAGUAGUAGCGGGAUAACGCUACUAUUGAGAAGGGACAUGAGGAUCACCCAUGUUUUGU [JR_Ex4_Sub067] (Eterna round: R97, puzzle: Exclusion 4)",54.7,–,22.5,–,–,–
CUCUACGGAGGAUAUACAACCGGUUAUCCCUGUGGAACGCCACAUGAGGAUCACCCAUGUAGAAGGCCGAGAAA [Ceones] (puzzle: Exclusion 2),–,–,–,211,15.2,218
"GUGAGUAGUCAGGAUAUGCUGUACAAAAGUACAGCAGAAGGGAUUACAUGAGGAUCACCCAUGUGUACUUCAUG [Omei Ex6 B10] (Eterna round: R97, puzzle: Exclusion 6)",940,–,322,–,–,–
"CGCCUGUGAGGAUAUUAGUAGUAGUCAGAAAAGACUAUUACUGAGAAGGUACAUGAGGAUCACCCAUGUUGGCG [Mat - Exclusion 4 - Eli Mod - D41] (Eterna round: R97, puzzle: Exclusion 4)",14.8,–,20,–,–,–
AAAUCCGCUGAGGAUAUGAUGACUGAGAGGUCAUCAGAAGGCGGUACAUGAGGAUCACCCAUGUCUAUGGGCAA [Ex-6 Malc#29] (puzzle: Exclusion 6),–,–,–,317,313,636
"GCCUUAUCUGUCAGGAUAUACAAUAAAAUAAUUAUGUAGAAGGGACAUGAGGAUCACCCAUGUACAUUACAUUG [alecazam25] (Eterna round: R97, puzzle: Brourd's mod of Exclusion 4)",50,–,22,–,–,–
"AAGUAGAGCUAAGGAUAUAUAGAGUAGUAGAAGAUAGAAGGUAGAAGUAGAAGAUGAUGAUGAAGAUGAAGUAGAUGAAGUAGA [TEST1] (Eterna round: R96, puzzle: Exclusion NG 1)",24.7,209,19.9,–,–,–
"CAAGCCUGAACGGCCGCUCACAUGAGGAUCACCCAUGUCACCUGUGCUAGAGGACCACAUUAAUCGCUUCGUCUUGG [Eternabot (L1) Solution 7] (Eterna round: R97, puzzle: Sensor, turn-off variant 1)",69.8,–,88.9,–,–,–
"UCUUCACAUGAGGAUCACCCAUGUGAGGAUAUGGUUUCGCUGGCCGUAGCCAGUGGAACCAGAAGGCGCAUGAU [Mat - Exclusion 1 - JL Mod - D7] (Eterna round: R97, puzzle: Exclusion 1)",21.5,–,26.1,–,–,–
"GGUUUUUCUGAGGAUAUUGCAUCACCCGAUUUAUAAGAAGGCAGAACAUGAGGAUCACCCAUGUGGGUCUCUAG [Bingo-Bango-27] (Eterna round: R97, puzzle: Exclusion 6)",24.4,–,15.7,–,–,–
"UCAUGUCCUGAGGAUAUCAAAGUCCUCCCGACAUGAGAAGGCAGGACAUGAGGAUCACCCAUGUGGAGCAGGGA [Sorareardi] (Eterna round: R97, puzzle: Exclusion 6)",10.3,–,353,–,–,–

Sequence,apparent KD of MS2 coat protein (input ligand: FMN 200 uM) [nM],apparent KD of MS2 coat protein [1] [nM],apparent KD of MS2 coat protein (input ligand: none) [nM],apparent KD of MS2 coat protein [2] [nM],apparent KD of MS2 coat protein [3] [nM],apparent KD of MS2 coat protein [4] [nM]
GCGCAGUCAGGAUAUGCCGCUGGCGAUCACCGUGGGCAAAGGCAGAAGGGACAUGAGGAUCACCCAUGUGGCGC [e4e Mirror Pins #2] (puzzle: Exclusion 4),–,–,–,39,–,–
"UGGGUUACCCAUGGAAGUAACAUGAGGAUCACCCAUGUAGGGCAAGUUUUUUGUUCGUCAUAGGCCGUGGGUUUGGA [JR_SV3TOV1_Sub021] (puzzle: Sensor v3, turn-off variant 1)",–,–,–,56.8,30.4,32.4
"CCAUAUAACUGAGGAUAUAAUCACCACUAACAUUUAGAAGGCAGACAUGAGGAUCACCCAUGUGAUUUCUCAAUAUUAUACAUC [Prohibition 77 - Jieux - Exclusion NG 1] (Eterna round: R96, puzzle: Exclusion NG 1)",387,544,1140,–,–,–
"CCUCCCUGAGGAUAUCCACCCUCAUACAUGAGGAUCACCCAUGUUCAUCCGUGGGUACCCGGAGAAGGCAGAUUUC [Megrez-a] (Eterna round: R97, puzzle: Exclusion 5)",41.9,–,33.1,–,–,–
"CGUUUGCAUUUUGCUCGUCACAUGAGGAUCACCCAUGUUAUGCUACAGUACGCUAGGAUCGGCGUCUGAGGGCUUUA [Eternabot (Original) Solution 1] (Eterna round: R97, puzzle: Sensor, turn-off variant 1)",25.2,–,27.7,–,–,–
"GGUGCGUAUGUGAGGAUAUGCUGGUCCUUGGGUCGGCAGAAGGCACAUGAGGAUCACCCAUGUGGUGUCGUUCC [salish99_Bmod_ex4_101] (Eterna round: R96, puzzle: Brourd's mod of Exclusion 4)",378,80.3,122,–,–,–
"AGGUGUAGAGGAUAUACAGUGUAUUACAUGAGGAUCACCCAUGUCCUUCAAUGGGUGUCAGUAGAAGGCUACACCA [Omei Ex5 C2] (Eterna round: R97, puzzle: Exclusion 5)",255,–,1660,–,–,–
"AGUGUGUGGCAGGAUAUUCUGUUGGUUCGGACAGAAGAAGGGUCUACAUGAGGAUCACCCAUGUAAGCGGUUGA [Ex6 #34] (Eterna round: R97, puzzle: Exclusion 6)",173,–,264,–,–,–
"AACACGGCAGGAUAUACUUGAGGAUCACCCAAGUUGUUCGCAACAUAAAAUAACUCUUGUAGAAGGGCCAAAAG [Isorbi] (Eterna round: R97, puzzle: Exclusion 3)",220,–,33.6,–,–,–
GAAAACCAAGGAUAUACAUGAGGAUCACCCAUGUAGGUUGGGACGCCAUAAAGGCGAUGUAGAAGGUGGGAAAA [Inansoge] (puzzle: Exclusion 3),–,–,–,21.6,–,–
"GCCUACCAGCUAGGAUAUGCAGUACAGUAAAAUGUAGAAGGAGCACGAUCCAGACAUGAGGAUCACCCAUGUGGGCGGCAGGCA [Raartive] (Eterna round: R96, puzzle: Exclusion NG 1)",19.7,17,22.8,–,–,–
AUUUAGAGAGGAUAUAUUAUGUGAAACAUGAGGAUCACCCAUGUAAUAUGAUGGAUAUAAAUAGAAGGCUCAUUUA [Mat - Exclusion 5 - JL mod - D24] (puzzle: Exclusion 5),–,–,–,32.3,–,–
"AGCGUGGAGACAGGAUAUGAGAAUAGAUAGAACUCAGAAGGGUCACAUGAGGAUCACCCAUGUAAAGUCUUGAGGCUGCGUGGU [Prohibition 7 - Jieux - Exclusion NG 1] (Eterna round: R96, puzzle: Exclusion NG 1)",341,74.1,109,–,–,–
"UGAUCUAGGCGAGGAUAUACAUGAGGAUCACCCAUGUAAACGUGACAUGAAAACAUGUCACGAAUGUAGAAGGCGCCUAGAUCU [JL ENG2 3.54] (Eterna round: R96, puzzle: Exclusion NG 2)",21.7,13.2,13.3,–,–,–
"UGCUGACGAGGAUAUACAUGAGGAUCACCCAUGUAAGAUCAGCGACGAUAGUCGCAAUGUAGAAGGCGUCAGCA [E3/10-A3] (Eterna round: R97, puzzle: Exclusion 3)",228,–,28.5,–,–,–
